Measured values: article PMC3459862

Target: GST-WC-1 mini, LXXLL motif mutant (LAQLL changed to LAQAA) (Neurospora crassa) (UniProt Q01371)
Experiment: pull-down

Sequence of UniProt Q01371 (Q01371 838-1000, change not shown): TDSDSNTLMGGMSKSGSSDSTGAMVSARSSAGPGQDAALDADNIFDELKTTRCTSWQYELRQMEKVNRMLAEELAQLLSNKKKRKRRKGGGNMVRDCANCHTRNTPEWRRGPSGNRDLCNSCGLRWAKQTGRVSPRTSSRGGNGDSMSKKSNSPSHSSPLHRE

S. cerevisiae Gcn5p, 35S-radiolabeled (from UniProt Q03330 1-439) (enzyme)
percent decrease of retained Gcn5p against WC-1 mini: 45%
